Assay results: patent publication US20090297524A1 (DOMANTIS, published 2009)
Substitutions are numbered along the chain they refer to.

T1: Recombinant human CD40L (human, UniProt P29965 108-261, limits assumed)
T1 construct: also called CD40 ligand
T1 sequence (looked up): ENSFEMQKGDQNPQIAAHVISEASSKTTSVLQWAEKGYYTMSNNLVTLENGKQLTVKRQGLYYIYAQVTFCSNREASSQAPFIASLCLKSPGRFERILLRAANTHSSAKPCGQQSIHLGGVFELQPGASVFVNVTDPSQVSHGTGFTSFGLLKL

B1: DOM-33 (other)
VL: DIQMTQSPSSLSASVGDRVTITCRASQTIGESLHWYQQKPGKAPRLLIYFASLLQSGVPSRFSGSGSGTDFTLTISSLQPEDFATYYCQQHHMLPSTFGQGTKVEIKR
notes: Vk dAb
B2: DOM-56 (other)
VH: EVQLLESGGGLVQPGGSLRLSCAASGFTFNDYTMGWVRQAPGKGLEWVSWIHGTGGQTYYADSVKGRFTISRDNSKNTLYLQMNSLRAEDTAVYYCAKALADRSGGVVEFDYWGQGTLVTVSS
notes: VH dAb
B3: DOM-53 (other)
VL: DIQMTQSPSSLSASVGDRVTITCRASQAIYGGLRWYQQKPGKAPKLLIYGESMLQSGVPSRFSGSGSGTDFTLTISSLHPEDFATYYCQQVYHKPFTFGQGTKVEIKR
notes: Vk dAb
B4: DOM-75 (other)
VH: EVQLLESGGGLVQPGGSLRLSCAASGFTFLQYPMGWVRQAPGKGLEWVSTISPVGLTTYYADSVKGRFTISRDNSKNTLYLQMNSLRAEDTAVYYCAKLFEGSRIQRDVGFDYWGQGTLVTVSS
notes: VH dAb
B5: DOM-54 (other)
VH: EVQLLESGGGLVQPGGSLRLSCAASGFTFTAYRMAWVRQAPGKGLEWVSWISPSGSGTYYADSVKGRFTISRDNSKNTLYLQMNSLRAEDTAVYYCAKTLTDSPSGHYEFDYWGQGTLVTVSS
notes: VH dAb
B6: DOM-61 (other)
VH: EVQLLESGGGLVQPGGSLRLSCAASGFTFAAYAMTWVRQAPGKGLEWVSYISPNGTATYYADSVKGRFTISRDNSKNTLYLQMNSLRAEDTAVYYCAEYVGMRWNSFDYWGQGTLVTVSS
notes: VH dAb
B7: DOM-81 (other)
VH: EVQLLESGGGLVQPGGFLRLSCAASGFTFELYPMAWVRQAPGKGLEWVSSISPVGFLTYYADSVKGRFTISRDNSKNTLYLQMNSLRAEDTAVYYCAKGHEGSYTPRSAFDYWGQGTLVTVSS
notes: VH dAb
B8: DOM-40 (other)
VH: EVQLLESGGGLVQPGGSLRLSCAASGFTFKAYDMGWVRQAPGKGLEWVSQIGRDGSFTYYADSVKGRFTISRDNSKNTLYLQMNSLRAEDTAVYYCAKPRRYAIFTFDRGQGTLVTVSS
notes: VH dAb
B9: DOM-69 (other)
VH: EVQLLESGGGLVQPGGSLRLSCAASGFTFLDYGMAWVRQAPGKGLEWVSAISPLGLSTYYADSVKSRFTISRDNSKNTLYLQMNSLRAEDTAVYYCAKEVRVGRGVHPPKFDYWGQGTLVTVSS
notes: VH dAb
B10: DOM-70 (other)
VH: EVQLLESGGGLVQPGGSLRLSCAASGFTFENYAMSWVRQAPGKGLEWVSTIAPLGVPTYYADSVKGRFTISRDNSKNTLYLQMNSLRAEDTAVYYCAKKKVGAWLQSRSFDYWGQGTLVTVSS
notes: VH dAb
B11: DOM-71 (other)
VH: EVQLLESGGGLVQPGGSLRLSCAASGFTFEGYPMSWVRQAPGKGLEWVSTISPLGPDTYYADSVKGRFTISRDNSKNTLYLQMNSLRAEDTAVYYCAKLLMGEYLNSRTFDYWGQGTLVTVSS
notes: VH dAb
B12: DOM-39 (other)
VL: DIQMTQSPSSLSASVGDCVTITCRASQNIDGLLWWYQQKPGKAPKLLIYAGSGLQSGVPSRFSGSGSGTDFTLTISSLQPEDFATYYCQQKAFEPFTFGQGTKVEIKR
notes: Vk dAb
B13: DOM-55 (other)
VH: EVQLLESGGGLVQPGGSLRLSCAASGFTFARYEMGWVRQAPGKGLEWVSRITAQGLGTYYADSVKGRFTISRDNSKNTLYLQMNSLRAEDTAVYYCAKYLTDFSSGHQEFDYWGQGTLVTVSS
notes: VH dAb
B14: DOM-45 (other)
VH: EVQLLESGGGLVQPGGSLRLSCAASGFTFGNYAMAWVRQAPGKGLEWVSKIGAQGLHTYYAGSVKGRFTISRDNSKNTLYLQMNSLRAEDTAVYYCAKQTTMDYERFDYWGQGTLVTVSS
notes: VH dAb
B15: DOM-72 (other)
VH: EVQLLESGGGLVQPGGSLRLSCAASGFTFEAYPMSWVRQAPGKGLEWVSSISPLGLWTYYADSVKGRFTISRDNSKNTLYLQMNSLRAEDTAVYYCAKLSAGAETHVYRLFDYWGQGTLVTVSS
notes: VH dAb
B16: DOM-82 (other)
VH: EVQLLESGGGLVQPGGSLRLSCAASGFTFVAYPMAWVRQAPGKGLEWVSTIAPLGGNTYYADSVKGRFTISRDNSKNTLYLQMNSLRAEDTAVYYCAKRPEGLQIDSQNFDYWGQGTLVTVSS
notes: VH dAb
B17: DOM-46 (other)
VH: EVQLLESGGGLVQPGGSLRLSCAASGFTFELYAMAWVRQAPGKGLEWVSGIGAVGETTYYADSVKGRFTISRDNSKNTLYLQMNSLRAEDTAVYYCAKEANNLSDNLVFDYWGQGTLVTVSS
notes: VH dAb
B18: DOM-59 (other)
VH: EVQLLESGGGLVQPGGSLRLSCAASGFTFLDYAMGWVRQAPGKGLEWVSTISPMGMGTYYADSVKGRFTISRDNSKNTLYLQMNSLRAEDTAVYYCAKSSAISFTSDISNFDYWGQGTLVTVSS
notes: VH dAb
B19: DOM-21 (other)
VH: EVQLLESGGGLVQPGGSLRLSCAASGFTFANYEMGWARQAPGKGLEWVSVISEWGYSTYYADSAKGRFTISRDNSKNTLYLQMNSLRAEDTAVYYCAKLVGGTQYEFDYWGQGTLVTVSS
notes: VH dAb
B20: DOM-32 (other)
VH: EVQLLESGGGLVQPGGSLRLSCAASGFTFEVYQMGWVRQAPGKGLEWVSFIVPGGDLTYYADSVKGRFTISRDNSKNTLYLQMNSLRAEDTAVYYCAETWPEFDYWGQGTLVTVSS
notes: VH dAb
B21: DOM-51 (other)
VL: DIQMTQSPSSLSASVGDRVTITCRASQPIVDELDWYQQKPGKAPKLLIYAASILQSGVPSRFSGSGSGTDFTLTISSLQPEDFATYYCHQWSTYPTTFGQGTKVEIKR
notes: Vk dAb
B22: DOM-34 (other)
VL: DIQMTQSPSSLSASVGDRVTITCRASQWIGDSLSWYQQKPGKAPKLLIYFASYLQSGVPTRFSGSGSGTDFTLTISSLQPEDFATYYCQQYFENPVTFGQGTKVGIKR
notes: Vk dAb
B23: DOM-50 (other)
VL: B22 VL with A51G, T60S, F83S, F92Q, E93Y, N94V, V96S, G105E, R108Q
notes: Vk dAb
B24: DOM-48 (other)
VL: B22 VL with A51G, S56N, T60S, F92M, E93I, N94T, V96T, G105E
notes: Vk dAb
B25: DOM-44 (other)
VH: EVQLLESGGGLVQPGGSLRLSCAASGFTFTSYEMGWVRQAPGKGLEWVSSIEPTGITTYYADSVKGRFTISRDNSKNTLYLQMNSLRAEDTAVYYCAKPHFTELGFDYWGQGTLVTVSS
notes: VH dAb

Target: T1, Recombinant human CD40L
Assay: CD40L/CD40-Fc receptor binding assay;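 further: plate assay with coated human CD40-Fc, bound ligand detected via HRP anti-biotin antibody and TMB, OD at 450 nm, lower signal indicates stronger inhibition by dAb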

binding result | Binder
binds | B1
binds | B2
binds | B3
binds | B4
binds | B5
binds | B6
binds | B7
binds | B8
binds | B9
binds | B10
binds | B11
binds | B12
binds | B13
binds | B14
binds | B15
binds | B16
binds | B17
binds | B18
binds | B19
binds | B20
binds | B21
binds | B22
binds | B23
binds | B24
binds | B25
